B1: LINE1-full (parent)
chain: UACGUAGGUGGUUUUCCCCUGAUAGUGCUAAGGGGGCCUGGAAGUUUGGACUGGGCAGAGCUCAACACAGCGUGGCAAAGUGGCUGUGGCUAGACUGCCUCUCUGGAUUCCUCGUCACUCAGCAGGGCAUCUCUGAGAGAAAUGCC

The variants in the series derive from B1. Kind of series: self-cleavage, relative activity (ratio to wild type); higher = more cleavage; in vitro, sequencing; the parent is a self-cleaving ribozyme.
For C16U G40U, the self-cleavage was determined as 0.6.

Regarding U20C A77U, the self-cleavage came out at 1.02.

As for U20C A77G, the self-cleavage came out at 1.7.

C18U C71A: the self-cleavage was 0.09.

As to U20C C38A, the self-cleavage came to 1.11.

As to C19A U85G, the self-cleavage amounted to 0.13.

For the variant C18U G144A, the self-cleavage turned out to be 0.75.

Regarding U20C C56U, the self-cleavage was 0.11.

For the variant C19A A142G, the self-cleavage turned out to be 1.3.

Take U20A U112C: the self-cleavage stood at 0.79.

As to U20A A121G, the self-cleavage was determined as 1.14.

U20A A121U: the self-cleavage came to 1.55.

As for C19A C128U, the self-cleavage was found to be 1.08.

For C16U U132C, the self-cleavage came to 1.12.

U20C A92C: the self-cleavage came to 0.14.

Turning to U20A C145U, the self-cleavage is 1.13.

For the variant C19U U81A, the self-cleavage came out at 1.05.

U20C C99U: the self-cleavage was 0.68.

C19U U115A: the self-cleavage came to 1.04.

For the variant C16U U91C, the self-cleavage stood at 0.74.

Consider C19A U108C, for which the self-cleavage worked out at 1.46.

Regarding C16A U115C, the self-cleavage came out at 0.41.

For C17U A121G, the self-cleavage amounted to 1.53.

Regarding U20A A42U, the self-cleavage came to 0.9.

Turning to C18U U26C, the self-cleavage was 2.16.

As to U20C A50G, the self-cleavage came to 0.66.

Turning to C16A U52C, the self-cleavage came out at 0.69.

On to U20A U119C, for which the self-cleavage was 1.05.

As for U20A U119A, the self-cleavage came to 1.47.

As for U20A G86A, the self-cleavage was determined as 0.18.

For the variant U20A C28U, the self-cleavage was 1.3.

For U20A C37G, the self-cleavage is 2.63.

Turning to U20C G70A, the self-cleavage was 0.14.

Take U20C G70U: the self-cleavage was 0.05.

C19U A107U: the self-cleavage is 1.5.

Turning to C19U A107G, the self-cleavage stood at 1.41.

With C18A A24G, the self-cleavage came out at 1.11.

With U20C G36C, the self-cleavage turned out to be 1.51.

C18A U73G: the self-cleavage stood at 1.01.

Consider C17U G49U, for which the self-cleavage was 1.69.

Consider U20A A138U, for which the self-cleavage was 1.19.

For the variant U20C G40C, the self-cleavage was 2.31.

On to U20C G35A, for which the self-cleavage stood at 1.73.

Consider U20A G48A, for which the self-cleavage turned out to be 0.77.

Take U20A G48U: the self-cleavage turned out to be 1.42.

For C17U U47A, the self-cleavage worked out at 1.34.

In the case of C18U U102G, the self-cleavage was determined as 0.62.

With C18U U102C, the self-cleavage was 1.61.

With U20C A59G, the self-cleavage came out at 0.11.

With C17A U46C, the self-cleavage is 1.42.

Regarding C18U U134G, the self-cleavage turned out to be 1.95.

For C18A G58U, the self-cleavage came to 0.07.

Take U20A A129G: the self-cleavage was determined as 0.97.

For the variant C19A A50G, the self-cleavage came out at 1.48.

Consider C19U A77U, for which the self-cleavage is 1.3.

With C17U U26A, the self-cleavage came out at 0.85.

For C16U U100A, the self-cleavage came out at 0.32.

U20C A65G: the self-cleavage was 0.06.

In the case of U20A A57G, the self-cleavage worked out at 1.

Take U20A A57U: the self-cleavage was 0.11.

Take U20A C38A: the self-cleavage amounted to 1.01.

Take U20A G127A: the self-cleavage stood at 1.1.

As for C17G U108C, the self-cleavage was 0.81.

As for C19A U26A, the self-cleavage was 1.16.

For U15G U132C, the self-cleavage came to 1.81.

As for C19G U26C, the self-cleavage is 1.2.

Regarding C19U A117U, the self-cleavage was determined as 1.28.

Take U20A U91C: the self-cleavage was found to be 0.65.

Turning to U20A C110A, the self-cleavage was found to be 1.4.

In the case of C17U U46A, the self-cleavage amounted to 0.72.

For the variant C19A A59G, the self-cleavage came to 0.13.

For U20A A92G, the self-cleavage is 0.05.

On to U20A A92U, for which the self-cleavage amounted to 0.92.

On to C16A U47G, for which the self-cleavage came out at 0.75.

In the case of U20C C98A, the self-cleavage turned out to be 0.07.

As to C16U A77U, the self-cleavage is 1.4.

In the case of U20C C113A, the self-cleavage was determined as 1.06.

Take U20A U29A: the self-cleavage is 1.05.

As to U20C G72C, the self-cleavage was 2.53.

Regarding U20A C56U, the self-cleavage came to 0.18.

For the variant U20C C37G, the self-cleavage amounted to 1.08.

For U20C C37U, the self-cleavage stood at 1.33.

Regarding C18U C56U, the self-cleavage was determined as 0.24.

As to C19A U62C, the self-cleavage is 0.28.

As for C19U G32A, the self-cleavage was 0.87.

As for U20C A42U, the self-cleavage turned out to be 1.06.

In the case of C19U U91C, the self-cleavage was found to be 0.62.

Take U20A A59U: the self-cleavage was 0.7.

With C19U A129U, the self-cleavage was 1.84.

As to C19A A138C, the self-cleavage stood at 1.07.

Consider C19A A138G, for which the self-cleavage was determined as 0.72.

Regarding U20C A64U, the self-cleavage worked out at 0.65.

Turning to U20C A64G, the self-cleavage came out at 0.41.

Consider U20A G137A, for which the self-cleavage stood at 1.29.

On to U20C A121G, for which the self-cleavage is 1.35.

For the variant C18U A65G, the self-cleavage came to 0.07.

For the variant C16U U108C, the self-cleavage worked out at 1.72.

For C18U A129G, the self-cleavage was determined as 0.81.

As for C16U U96C, the self-cleavage turned out to be 0.11.

As for C16U U96A, the self-cleavage was found to be 0.03.

For C18U A136G, the self-cleavage came to 1.33.

Take U20A C99A: the self-cleavage amounted to 0.74.

With U20A A65G, the self-cleavage is 0.11.

As for C18U G126U, the self-cleavage was determined as 1.62.

For the variant C19U U85C, the self-cleavage turned out to be 0.21.

As for C18U A94G, the self-cleavage was found to be 0.32.

Take C19A U104C: the self-cleavage stood at 1.14.

In the case of U20A U130C, the self-cleavage came out at 1.45.

Regarding U20A U130A, the self-cleavage came to 0.32.

With U20A A43U, the self-cleavage came to 1.46.

Regarding C17U U115C, the self-cleavage stood at 1.48.

As for U20C C28A, the self-cleavage amounted to 0.84.

For the variant C19U U143C, the self-cleavage was 0.98.

For the variant C16U A138G, the self-cleavage came out at 2.06.

U20C G60U: the self-cleavage amounted to 0.05.

In the case of C16A U46C, the self-cleavage worked out at 0.91.

For the variant C16U A140U, the self-cleavage is 1.78.

U20C C111U: the self-cleavage came to 1.03.

Consider C19U U104C, for which the self-cleavage is 0.65.

With C19U U104A, the self-cleavage amounted to 1.07.

Consider U20C A140G, for which the self-cleavage amounted to 1.35.

Take C18U A77U: the self-cleavage is 1.11.

For C18U A77G, the self-cleavage was determined as 1.91.

For the variant C16A A121G, the self-cleavage is 0.53.

As for U20C G54U, the self-cleavage worked out at 0.91.

In the case of C17U A77U, the self-cleavage amounted to 0.36.

Consider C17U A59G, for which the self-cleavage came to 0.17.

With U20A A69C, the self-cleavage worked out at 0.06.

As to U20A A69U, the self-cleavage was found to be 0.1.

With C17U A64G, the self-cleavage worked out at 0.22.

For the variant C16U A136U, the self-cleavage is 1.29.

As to U20C G126U, the self-cleavage was 1.92.

In the case of C19U G89A, the self-cleavage worked out at 0.11.

C18A U96C: the self-cleavage came out at 0.22.

With U20A U26C, the self-cleavage was found to be 1.11.

For the variant C16U U104C, the self-cleavage is 1.03.

For C17G U91C, the self-cleavage was determined as 0.38.

Regarding C19U U45A, the self-cleavage was found to be 1.43.

For C19U U45C, the self-cleavage was determined as 0.86.

C18U G60A: the self-cleavage was found to be 0.01.

As for C19A A124G, the self-cleavage was 0.58.

As for U20C A69G, the self-cleavage came out at 0.66.

Consider U20C A69U, for which the self-cleavage came out at 0.07.

In the case of C18U A79G, the self-cleavage came out at 1.

In the case of C19A A78G, the self-cleavage is 1.53.

Consider C17A U115C, for which the self-cleavage was found to be 0.71.

For C17U U87A, the self-cleavage stood at 0.11.

As for C17U U87C, the self-cleavage amounted to 0.23.

In the case of C17A U108C, the self-cleavage is 1.96.

Turning to U20A A79G, the self-cleavage is 0.92.

Consider U20C, for which the self-cleavage worked out at 1.37.

In the case of U20A, the self-cleavage came out at 1.21.

C19U C84U: the self-cleavage worked out at 0.22.

As for C17U A42G, the self-cleavage came to 1.36.

Take C19U U46C: the self-cleavage is 1.

On to C16U, for which the self-cleavage was determined as 1.12.

C16A: the self-cleavage amounted to 0.96.

Turning to U20A A24U, the self-cleavage worked out at 1.41.

Consider C19U A141G, for which the self-cleavage came to 0.99.

With C19U A141U, the self-cleavage was 1.

Regarding C18U G25A, the self-cleavage amounted to 0.39.

For the variant C19U A67U, the self-cleavage is 0.1.

In the case of U20A A50U, the self-cleavage was found to be 1.06.

As for C19U A65G, the self-cleavage was found to be 0.14.

In the case of C19A U20C, the self-cleavage stood at 1.04.

In the case of U20C C71U, the self-cleavage came to 0.77.

In the case of U20C A78U, the self-cleavage was determined as 1.86.
